Test results taken from US20200123264A1 (Regeneron, published 2020).

Key:
Experiment in all cases: Luminex, myc-captured LEPR protein on beads, Ab 0.5 µg/mL
[1] = target: T1, human LEPR CRH1-Ig (D2,D3)-MMH (human, UniProt P48357 230-427, limits assumed)
T1 construct: domain: CRH1-Ig (D2,D3); Transiently expressed, captured from supernatant on anti-myc beads
T1 sequence (looked up): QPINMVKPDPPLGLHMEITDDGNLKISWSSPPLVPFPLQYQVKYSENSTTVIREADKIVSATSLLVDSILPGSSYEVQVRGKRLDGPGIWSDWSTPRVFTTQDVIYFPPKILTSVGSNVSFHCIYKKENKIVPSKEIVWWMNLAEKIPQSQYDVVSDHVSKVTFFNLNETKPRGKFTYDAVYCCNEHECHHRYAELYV
Description: (§1) Aliquots of microspheres with immobilized anti-myc monoclonal antibodies, prepared as described above, were added individually to 1 mL of the each of these protein supernatants. The microspheres were gently mixed, incubated for two hours at 25° C., washed twice with 1 mL of DBPS, centrifuged to remove the supernatant and finally resuspended in 1 mL of DPBS buffer. Forty eight μL of anti-myc IgG coupled microspheres from individual reactions with full length human LEPR and with each of the human LEPR domain proteins were withdrawn and mixed together in 3.6 mL of PBS+20 mg/mL BSA+0.05% sodium azide (blocking buffer).
(§2) From this mixed pool, 75 μL of microspheres were plated per well on a 96 well filter plate (Millipore, Cat. No: MSBVN1250) and mixed with 25 μL of individual anti-human LEPR monoclonal antibodies (0.5 or 5 μg/mL), incubated for two hours at 25° C. and then washed twice with 200 μL of DPBS with 0.05% Tween 20 (washing buffer). […] After 30 minutes, the samples were washed twice with 200 μL of washing buffer and resuspended in 150 μL of wash buffer. The Median Fluorescence intensity (MFI) of the microspheres was measured in a Luminex Analyzer.

human LEPR FNIII-MMH = target: T2, human LEPR FNIII-MMH (human, UniProt P48357 636-839, limits assumed)
T2 construct: domain: FNIII; Transiently expressed, captured from supernatant on anti-myc beads
T2 sequence (looked up): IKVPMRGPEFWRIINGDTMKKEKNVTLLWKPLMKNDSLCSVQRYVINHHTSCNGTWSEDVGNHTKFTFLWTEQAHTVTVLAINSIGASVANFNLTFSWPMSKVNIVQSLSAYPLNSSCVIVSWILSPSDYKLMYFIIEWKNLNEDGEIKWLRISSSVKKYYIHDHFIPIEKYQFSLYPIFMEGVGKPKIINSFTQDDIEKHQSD
Description: as §1, §2

[2] = target: T3, human LEPR Ig-CRH2-FNIII-MMH (human, UniProt P48357 330-839, limits assumed)
T3 construct: domain: Ig-CRH2-FNIII; Transiently expressed, captured from supernatant on anti-myc beads
T3 sequence (looked up): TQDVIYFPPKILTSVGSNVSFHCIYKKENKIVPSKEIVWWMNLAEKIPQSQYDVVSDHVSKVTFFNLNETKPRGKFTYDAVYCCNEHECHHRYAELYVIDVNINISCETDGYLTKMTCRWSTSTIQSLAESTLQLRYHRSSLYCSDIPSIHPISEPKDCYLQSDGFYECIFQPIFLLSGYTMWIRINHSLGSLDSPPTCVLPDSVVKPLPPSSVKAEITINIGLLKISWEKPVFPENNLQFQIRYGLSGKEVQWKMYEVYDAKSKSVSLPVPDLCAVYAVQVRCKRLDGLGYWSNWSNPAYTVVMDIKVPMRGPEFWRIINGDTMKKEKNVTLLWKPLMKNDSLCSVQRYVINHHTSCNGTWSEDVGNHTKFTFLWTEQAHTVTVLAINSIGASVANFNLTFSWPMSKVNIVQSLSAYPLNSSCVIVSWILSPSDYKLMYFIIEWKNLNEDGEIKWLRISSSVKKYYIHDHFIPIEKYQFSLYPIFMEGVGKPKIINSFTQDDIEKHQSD
Description: as §1, §2

human LEPR CRH2-MMH = target: T4, human LEPR CRH2-MMH (human, UniProt P48357 428-634, limits assumed)
T4 construct: domain: CRH2; Transiently expressed, captured from supernatant on anti-myc beads
T4 sequence (looked up): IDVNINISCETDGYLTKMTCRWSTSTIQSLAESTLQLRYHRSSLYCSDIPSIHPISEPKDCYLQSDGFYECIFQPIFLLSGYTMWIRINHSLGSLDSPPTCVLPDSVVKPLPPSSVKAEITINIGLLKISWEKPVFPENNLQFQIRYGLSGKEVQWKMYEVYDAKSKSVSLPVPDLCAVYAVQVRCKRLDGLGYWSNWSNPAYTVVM
Description: as §1, §2

human LEPR CRH1 (D1)-MMH = target: T5, human LEPR CRH1 (D1)-MMH (human, UniProt P48357 22-229, limits assumed)
T5 construct: domain: CRH1 (D1); Transiently expressed, captured from supernatant on anti-myc beads
T5 sequence (looked up): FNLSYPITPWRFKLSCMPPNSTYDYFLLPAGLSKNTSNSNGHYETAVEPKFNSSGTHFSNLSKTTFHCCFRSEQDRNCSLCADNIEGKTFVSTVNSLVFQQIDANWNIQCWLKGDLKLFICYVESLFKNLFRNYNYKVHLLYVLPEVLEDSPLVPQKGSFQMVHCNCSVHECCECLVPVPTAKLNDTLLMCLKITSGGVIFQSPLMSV
Description: as §1, §2

Luminex MFI [1]: 25 MFI | Luminex MFI (human LEPR FNIII-MMH): 229 MFI | Luminex MFI [2]: 11200 MFI | Luminex MFI (human LEPR CRH2-MMH): 8 MFI | Luminex MFI (human LEPR CRH1 (D1)-MMH): 615 MFI
B1: H4H18462P2 (antibody, human IgG4, V domains shown)
VH: EVQLVESGGDLVQPGRSLRLSCAASGFTFSSFAMSWVRQAPGRGLEWVSSLSDSGDNTYYADSVKGRFTISRDNSKNTLYLQMNNLRAEDTAVYYCAKDLFSGWLFHGFDVWGQGTMVTVSS
VL: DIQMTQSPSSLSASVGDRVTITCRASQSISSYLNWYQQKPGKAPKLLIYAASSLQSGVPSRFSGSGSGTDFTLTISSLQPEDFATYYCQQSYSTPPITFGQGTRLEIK
notes: H4H prefix: human IgG4 Fc
